The results in this text go back to US20170112908A1.

In the assay the target is polyclonal antibodies in mouse sera specific for human PCSK9 aa 153-162 or aa 153-165. Put plainly: competition ELISA, 20 ug peptide with sera, plate coated with m2 (competitor). For orientation: ELISA stands for enzyme-linked immunosorbent assay.
On to SIPWNLERITPAR, for which the % Competition compared to the related control group is 74%.
Then SIPWNLERISPPR, with 79%.
VIPWNLERIT: the % Competition compared to the related control group was found to be 51%.
Then SIPWSLERIQ, with 44%.
The result for SIPWQLERITPPR reads 79%; that for SVPWNLEKLT, 11%; that for SIPWNFERITPPR, 79%.
The result for SIPGNLERIT reads 0%; that for SITWNLERIT, 62%; that for SIPWNLERITPPA, 65%.
The molecule SIPDNLERIT gave a % Competition compared to the related control group of 3%.
Then SIPHNLERIT, with 0%; and SVPWSLERLT, with 74%.
For the molecule VQPWSLERLL, the % Competition compared to the related control group was determined as 66%.
Then SIPWNLERITPNR, with 70%; and SVPWNLERTT, with 73%.
Then VIPWNLERLT, with 54%; and SVPWNLERIL, with 59%.
The result for VQPWSLERTL reads 48%.
SIAWNLERIT yielded a % Competition compared to the related control group of 78%.
The result for SIPWNLEDIT reads 13%; that for SIPWALERIT, 75%.
Then SIPWNLERTT, with 73%; and TIPWNLERIT, with 52%.
The result for SGPWNLERITPPR reads 54%.
Take SIPWNLERIL: the % Competition compared to the related control group worked out at 56%.
Then VIPWNLERIL, with 49%; and SIPWNLARIT, with 13%; and SVPWNLERIT, with 62%.
On to SIPWNLERAT, for which the % Competition compared to the related control group worked out at 77%.
For SIPWNLDRITPPR, the % Competition compared to the related control group came to 53%.
The result for ITELSRWPNI reads 0%.
Regarding ERTKSDPGAQHREF, the % Competition compared to the related control group turned out to be 0%.
The result for SQPWNLERIL reads 69%; that for SQPWNLERIT, 30%.
Then SIPWNVERITPPR, with 78%; and SIPANLERIT, with 8%.
The result for SIPWNLERITPTR reads 73%; that for SIVWNLERITPPR, 78%; that for SIPWDLERITPPR, 74%.
Turning to AIPWNLERIT, the % Competition compared to the related control group was 88%.
SIPWNLERITPPS gave a % Competition compared to the related control group of 66%.
The result for SIPWNAERIT reads 73%; that for SIPWNLERIA, 80%; that for SVPWNLERIQ, 61%.
The result for SIPWNDERIT reads 71%; that for SIPWSLERIT, 73%.
The result for SQPWNLERLT reads 69%.
Take SVPWNLERLT: the % Competition compared to the related control group stood at 57%.
Take SIPWNLERITPPL: the % Competition compared to the related control group was found to be 66%.
The result for SIPWNLERITPPK reads 66%; that for VIPWNLERTT, 69%; that for SQPWNLERIQ, 66%.
Molecule SIPWNLERITPVR yielded a % Competition compared to the related control group of 75%.
Then VIPWNLERIQ, with 47%; and SIPSNLERIT, with 7%.
Then SIPWNLERITAPR, with 70%.
Molecule SIPWNGERIT registered a % Competition compared to the related control group of 52%.
SQPWSLERTL showed a % Competition compared to the related control group of 53%.
